Legend:
[1] = molecular target: Actin of the thin filament in human ventricular myocytes (human (endogenous in ventricular myocytes)) (UniProt P68032); assay: autocorrelation function of fluctuations of fluorescence anisotropy (confocal, about 6 molecules); in situ, A-band of isolated EDC-cross-linked myocytes from failing human left ventricles, isometric contraction in contracting solution (5 mM ATP, 0.1 mM CaCl2, pH 7.5); 20 s records, time resolution 10 ms; three-state fit
[2] = molecular target: Actin of the thin filament in human ventricular myocytes (human (endogenous in ventricular myocytes)) (UniProt P68032); assay: autocorrelation function of fluctuations of fluorescence anisotropy (confocal, about 6 molecules); in situ, A-band of isolated EDC-cross-linked myocytes from failing human right ventricles, isometric contraction in contracting solution (5 mM ATP, 0.1 mM CaCl2, pH 7.5); 20 s records, time resolution 10 ms; three-state fit

k (DISS) (rate of dissociation of the cross-bridge from the thin filament during contraction) [1]: 2.24 | k (DISS) (rate of dissociation of the cross-bridge from the thin filament during contraction) [2]: 2.36
Substance: Ventricular myosin cross-bridge carrying the exchanged fluorescent LC (from UniProt P12883 1-1935; P05976 1-194; P10916 1-166) (complex)

Reference: PMC5645524
